Data: the RNAGym collection of RNA variant scans (doi:10.7554/elife.90254)

B1: OR4K15 (parent)
chain: GUUAACGGUCAUAGGCCAUGGAAACUAGGAGCACCAUUUCGCUGCCAGUGAAGAAAUGAACAAAGAAAAUCUGGGCCAGGCAGGCAUCAAAAGAAAUAGUCUUGCGCUCAACCAGAAAGUCUGUAAUCAUUUUAAGGGUA

Variants of: B1
Experiment: self-cleavage, relative activity (ratio to wild type); higher = more cleavage; in vitro, sequencing; the parent is a self-cleaving ribozyme

First: GUUAACGGUCAUAGGCCAUGGAAACUAGGAGCACCACUUCGCUGCCAGUGAAGAAAUGAACAAAGAAAAUCUGGGCCAGGCAGGCAUCAAAAGAAAUAGUCUUGCGCUCAGCCAGAAAGUCUGUAAUCAUUUUAAGGGUA [U37C A111G]
Second: GUUAACGGUCAUAGGCCAUGGAAACCAGGAGCACCAUUUCGCUGCCAGUGAAGAAAUGAACAAAGAAAAUCUGGGCCAGGCAGGCAUCAAAAGAAAUAGUCUUGCGCUCAACCAGAAAGUCUGUAAUCAUUUUAAGGGUG [U26C A140G]
The self-cleavage of the first is lower: 0.03 for the first, 1.4 for the second.

Going from GUUAACGGUCAUAGGCCAUGGAAACUAGGAGCACCAUUUCGCCGCCAGUGAAGUAAUGAACAAAGAAAAUCUGGGCCAGGCAGGCAUCAAAAGAAAUAGUCUUGCGCUCAACCAGAAAGUCUGUAAUCAUUUUAAGGGUA [U43C A54U] to GUUAACGGUCAUAGGCCAUGGAAACUAGGAGCACCAUUUCGCUGCCAGUGAAGAAAUGAACAAAGAAAAUCUGGGCCAAGCAGGCAUCAAAAGAAAUAGUCUUGCGCUCAACCAGAAAGUCUGUAAUCAUUUUAAGGGCA [G79A U139C], the self-cleavage falls from 0.85 to 0.11.

Compared with GUUAACGGUCAUAGGCCAUGGAAACUAGGAGCACCGUUUCGCUGCCAGUGAAGAAAUGAACAAAGUAAAUCUGGGCCAGGCAGGCAUCAAAAGAAAUAGUCUUGCGCUCAACCAGAAAGUCUGUAAUCAUUUUAAGGGUA [A36G A66U], GUUAACGGUCAUAGGCCAUGGAAACUAGGAGCACCAUUUCGCUGCCAGUGAAGAAAUGAAUAAUGAAAAUCUGGGCCAGGCAGGCAUCAAAAGAAAUAGUCUUGCGCUCAACCAGAAAGUCUGUAAUCAUUUUAAGGGUA [C61U A64U] is lower in self-cleavage: 2.4 for the first, 0.27 for the second.

First: GUUAACGGUCAUAGGCCAUGGAAACUAGGAGCACCAUUUCGCUGCCAGUGAAGAAAUGAACAAAGAAAAUCUGGGCCAGGCAGGCAUCAAAAGAAAUAGUCUUGCGCUCAACCAGAGAGUCUGUGAUCAUUUUAAGGGUA [A117G A125G]
Second: GUUAACGGUCAUAGGCCAUGGAAACUAGGAGCACCAUUUCGCUGCUAGUGAAGAAAUGAACAAAGAAAAUCUGGGCCAGGCAGGCAUCAAAAGAAAUAGUCUUGCGCUCAACCAGAAAGUCUGUAAUCGUUUUAAGGGUA [C46U A129G]
The self-cleavage of the first is lower: 0.66 for the first, 1.52 for the second.

Going from GUUAACGGUCAUAGGCCAUGGAAACUAGGAGCACCAUUUCGCUGCCAGUGAAGAUAUGAACAAAGAGAAUCUGGGCCAGGCAGGCAUCAAAAGAAAUAGUCUUGCGCUCAACCAGAAAGUCUGUAAUCAUUUUAAGGGUA [A55U A67G] to GUUAACGGUCAUAGGCCAUGGAAACUAGGAGCACCAUUUCGCUGCCAGUGAAGAAAUGAACAAAGAAAAUCUGGGCCAGGCAGGCAUCAAAAGAAAUAGUCUUGCGCUCAACCAGAAAGUCUGUAACCAUUUAAAGGGUA [U127C U133A], the self-cleavage rises from 1.12 to 1.7.

Going from GUUAACGGUCAUAGGCCAUGGAAACUAGGAGCACCAUUUCGCUGCCAGUGAGGAAAUGAACAAAGAAAAUCUGGGCCAGGCAGGCAUCAAAGGAAAUAGUCUUGCGCUCAACCAGAAAGUCUGUAAUCAUUUUAAGGGUA [A52G A92G] to GUUAACGGUCAUGGGCCAUGGAAACUAGGAGCACCAUUUCGCUGCCAGUGAAGAAAUGAACAAAGAAAAUCUGGGCCAGGCAGGCAUCAAAAGAAAUAGUCUUGCGCUCAACCAGAAUGUCUGUAAUCAUUUUAAGGGUA [A13G A118U], the self-cleavage falls from 1.34 to 0.59.

Compared with GUUAACGGUCAUAGGCCAUGGAAAUUAGGAGCACCAUUUCGCUGCCAGUGAAGUAAUGAACAAAGAAAAUCUGGGCCAGGCAGGCAUCAAAAGAAAUAGUCUUGCGCUCAACCAGAAAGUCUGUAAUCAUUUUAAGGGUA [C25U A54U], GUUAACGGUCAUAGGCCAUGGAAACUAGGAGCACCAUUUCGCUGCCAGUGAAGAAAUGAACAAUGAAAAUCUGGGCCAGGCAGGCAUCAAAAGAGAUAGUCUUGCGCUCAACCAGAAAGUCUGUAAUCAUUUUAAGGGUA [A64U A95G] is higher in self-cleavage: 1.33 for the first, 1.95 for the second.

First: GUUAACGGUCAUUGGCCAUGGAAACUAGGAGCACCAUUUCGCUGCCAGUGAAGAAAUGAACAAAGAAAAUCUGGGCCAGGCAGGCAUCAAAAGGAAUAGUCUUGCGCUCAACCAGAAAGUCUGUAAUCAUUUUAAGGGUA [A13U A94G]
Second: GUUAACGGUCAUAGGCCCUGGAAACUAGGAGCACCAUUUCGCUGCCAGUGAAGAAAUGAACCAAGAAAAUCUGGGCCAGGCAGGCAUCAAAAGAAAUAGUCUUGCGCUCAACCAGAAAGUCUGUAAUCAUUUUAAGGGUA [A18C A62C]
The self-cleavage of the first is lower: 0.55 for the first, 1.25 for the second.

First: GUUAACGGUCAUAGGCCAUGGAAACUAAGAGCACCAUUUCGCUGCCAGUGAAGAAAUGAACAAAGAAAAUCUGGGCCAGGCAGGCAUCAAAAGAAAUAGUCUUGCGCUCAACCAGAAAGUCUGUAAUCGUUUUAAGGGUA [G28A A129G]
Second: GUUAACGGUCAUAAGCCAUGGAAACUAGGAGCACCAUUUCGCUGCCAGUGAAGAAAUGAACAAAGAAAAUCCGGGCCAGGCAGGCAUCAAAAGAAAUAGUCUUGCGCUCAACCAGAAAGUCUGUAAUCAUUUUAAGGGUA [G14A U72C]
The self-cleavage of the first is higher: 0.99 for the first, 0.22 for the second.

Going from GUUAACGGUCAUAGGCCAUGGUAACUAGGAGCACCAUUUCGCUGCCAGUGAAGAAAUGAACAAAGAAAAUCUGGGCCAGGCAGGCAUCAAAAGGAAUAGUCUUGCGCUCAACCAGAAAGUCUGUAAUCAUUUUAAGGGUA [A22U A94G] to GUUAACGGUCAUAGGCCAUGGAAACUAGGAGCACCAUUUCGCUGCCAGUGAAGAAAUGCACAAAGAAGAUCUGGGCCAGGCAGGCAUCAAAAGAAAUAGUCUUGCGCUCAACCAGAAAGUCUGUAAUCAUUUUAAGGGUA [A59C A68G], the self-cleavage rises from 1.84 to 2.1.

Going from GUUAUCGGUCAUAGGCCAUGGAAACUAGGAGCACCAUUUCGCUGCCAGUGAAGAAAUGAACAAAGAAAAUCUGGGCCAGGCAGGCAUCAAAAGAAAUAGUCUUGCGCUCAACCAGAAGGUCUGUAAUCAUUUUAAGGGUA [A5U A118G] to GUUAACGGUCAUAGGCCAUGGAAACUAGGAGCACCAUUUCGCUGCCAGUGAAGAAAUGAACAAAGAAAAUCUGGGCCAGGCGGGCAUCAAAGGAAAUAGUCUUGCGCUCAACCAGAAAGUCUGUAAUCAUUUUAAGGGUA [A82G A92G], the self-cleavage falls from 0.83 to 0.67.

Going from GUUAACGGCCAUAGGCCAUGGAAACUAGGAGCACCAUUUCGCUGCCAGUGAAGAAAUGAACAAAGAAAAUCUGGGCCAGGCAGGCAUCAAAAGAAAUAGUCUUGCGCUCAACCAGAAAGUCUGUAAUCGUUUUAAGGGUA [U9C A129G] to GUUAACGGUCAUAGGCCAUGGAAACUAGGAGCACCAUUUCGCUGCCAGUGAAGAAAUGAACAAAGAAAACCUGGACCAGGCAGGCAUCAAAAGAAAUAGUCUUGCGCUCAACCAGAAAGUCUGUAAUCAUUUUAAGGGUA [U70C G75A], the self-cleavage falls from 1.37 to 0.21.

Compared with GUUAACGGUCAUAGGCCAUGGAAACUAGGAGCACCAUUUCGCUGCCAGUGAAGACAUGAACAAAGAAAAUCUGGGCCAGGCAGGCAUCAAAAGAAAUAGUCUUGCGCUCAACCAGAAAGUCUGUAAUCGUUUUAAGGGUA [A55C A129G], GUUAACGGUCAUAGGCCAUGGAAACUAGGAGCACCAUUUCGCUGCCACUGAAGAAAUGAACAAAGAGAAUCUGGGCCAGGCAGGCAUCAAAAGAAAUAGUCUUGCGCUCAACCAGAAAGUCUGUAAUCAUUUUAAGGGUA [G48C A67G] is higher in self-cleavage: 1.2 for the first, 1.37 for the second.

Going from GUUAACGGUCAUAGGCCAUGGAAACUAGGAGCACCAUUUCGCUGCCUGUGAAGAAAUGAACAAAGAAAAUCUGGGCCAGGCAGGCAUCAAAAGAAAUAGUCUUGCGCUCAACCAGAAAGUCUGCAAUCAUUUUAAGGGUA [A47U U124C] to GUUAACGGUCAUAGGCCAUGGAAACUAGGAGCACCACUUCUCUGCCAGUGAAGAAAUGAACAAAGAAAAUCUGGGCCAGGCAGGCAUCAAAAGAAAUAGUCUUGCGCUCAACCAGAAAGUCUGUAAUCAUUUUAAGGGUA [U37C G41U], the self-cleavage rises from 0.5 to 1.04.

Compared with GUUAACGGUCAUAGGCCAUGGAAACUAGGAGCACCAUUUCGCUGCCGGUGAAGAAAUGAACAAAGAAAAUCUGGGCCAGGCAGGCAUCAAAAGAAAUAGUCUUGCGCUCAACCAGAAAGUCUGUAACCAUUUUAAGGGUA [A47G U127C], GUUAACGGUCAUAGGCUAUGGAAACUAGGAGCGCCAUUUCGCUGCCAGUGAAGAAAUGAACAAAGAAAAUCUGGGCCAGGCAGGCAUCAAAAGAAAUAGUCUUGCGCUCAACCAGAAAGUCUGUAAUCAUUUUAAGGGUA [C17U A33G] is higher in self-cleavage: 0.59 for the first, 1.07 for the second.

First: GUUAACUGUCAUAGGCCAUGGAAACUAGGAGCACCAUUUCGCUGCCAGUGAAGAAAUGAACAAAGAAAAUCUGGGCCAGGCAGGCAUCAAAAGAGAUAGUCUUGCGCUCAACCAGAAAGUCUGUAAUCAUUUUAAGGGUA [G7U A95G]
Second: GUUAACGGUCAUAGGCCAUGGAAACUAGGAGCACCAUUUCGCUGCCAGUGAAGAAAUGAACAAUGAAAAUCUGGGCCAGGCAGGCAUCAAAAGAAAUAGUCUUGCGCUCAACCAGAAAGUCUGUAAUCAUUUUGAGGGUA [A64U A134G]
The self-cleavage of the first is lower: 1.43 for the first, 1.44 for the second.

First: GUUAACGGUCAUAGGCCAUGGAAACUAGGAGCACCAUUUCGCAGCCAGUGAAGAAAUGAACAAAGAAAAUCUGGGCCAGGCAGGCAUCAAAAGAAAUCGUCUUGCGCUCAACCAGAAAGUCUGUAAUCAUUUUAAGGGUA [U43A A98C]
Second: GUUAACGGUCAUAGGCCAUGGAAACUAGGAGCACCAUUUCGCUGCCAGUGAAGAAACGAACAAGGAAAAUCUGGGCCAGGCAGGCAUCAAAAGAAAUAGUCUUGCGCUCAACCAGAAAGUCUGUAAUCAUUUUAAGGGUA [U57C A64G]
The self-cleavage of the first is higher: 1.91 for the first, 0.81 for the second.

Going from GUUAACGGUCAUGGGCCAUGGAAACUAGGAGCACCAUUUCGCUGCCAGUGAAGAAAUGAACAAAGAAAAUCUGGGCUAGGCAGGCAUCAAAAGAAAUAGUCUUGCGCUCAACCAGAAAGUCUGUAAUCAUUUUAAGGGUA [A13G C77U] to GUUAACGGUCAUAGGCCAUGGAAACUAGGAGCACCAUUUCGCUGCCAGUGAAGAAAUGAACAAAGAAAAUCUGGCCCAGGCAGGCAUCAAAAGAAAUAGUCUUGCGCUCAACCAGAAAGUCUGUACUCAUUUUAAGGGUA [G75C A126C], the self-cleavage falls from 1.1 to 0.09.

First: GUUAACGGUCAUAGGCCAUGGAAACUAGGUGCACCAUUUCGCUGCCAGUGAAGAAAUGAACAAAGAAAAUCUGGGCCAGGCAGGCAUCAAAAGAAAUAGUCUUGCGCUCAACCUGAAAGUCUGUAAUCAUUUUAAGGGUA [A30U A114U]
Second: GUUAACGGUCAUAGGCCAUGGAAACUAGGAGCGCCAUUUCGCUGCCAGUGAAGAAAUGAACAAAGAAAAUCUGGGCCGGGCAGGCAUCAAAAGAAAUAGUCUUGCGCUCAACCAGAAAGUCUGUAAUCAUUUUAAGGGUA [A33G A78G]
The self-cleavage of the first is lower: 0.11 for the first, 0.19 for the second.

First: GUUAACGGUCAUAGGCCAUGGAAACUAGGAGCACCAUUUCGCUGCCAGUGAAGAAAUGAACAAAGAGAAUCUGGGCCAGGCAAGCAUCAAAAGAAAUAGUCUUGCGCUCAACCAGAAAGUCUGUAAUCAUUUUAAGGGUA [A67G G83A]
Second: GUUAACGGUCAUAGGCCAUGGAAACUAGGAGCACCAUUUCGCUGCCAGUGAAGAGAUGAACAAAGAAAAUCUGGGCCAGGCAGGCAUCAAAAGAAAUAGUCUAGCGCUCAACCAGAAAGUCUGUAAUCAUUUUAAGGGUA [A55G U103A]
The self-cleavage of the first is higher: 2.38 for the first, 0.46 for the second.

Variant GUUAACGGUCAUAGGCCAUGGAAACUAGGAGCACCAUUUCGCUGCCAGUGAAGAAAUGAACAAAGAAAAUCUGGGCCAGGCAGGCAUCAAAAGAAAUAGUCUUGCGCUCAACCAGAAAGUCUGUAAUCCUUUUAAGGGUA [A129C] has a self-cleavage of 0.97.
